The source of these data is publication PMC4807222 (Structure (London, England : 1993), 2015).

For orientation: Kd means the free concentration of one partner at which half of the binding sites on the other are occupied at equilibrium, for simple one-to-one binding.

B1: c-Myc_(1–88) (domain or fragment, human, UniProt P01106-1 1-88, looked up)
chain: MPLNVSFTNRNYDLDYDSVQPYFYCDEEENFYQQQQQSELQPPAPSEDIWKKFELLPTPPLSPSRRSGLCSPSYVAVTPFSLRGDNDG

Where only a bound is given, the exact number is not on record here.

The target of the assay “c-Myc_(1–88)” is B1. Briefly: SPR. For orientation: Surface plasmon resonance follows binding to a sensor surface in real time, without labels.
Assay [1] addresses T1, full-length Pin1 (1–163) (human, UniProt Q13526 1-163). Briefly: SPR.
The target of assay [2] is T1, full-length Pin1 (1–163). Briefly: ITC.

T1 sequence (Q13526 whole entry): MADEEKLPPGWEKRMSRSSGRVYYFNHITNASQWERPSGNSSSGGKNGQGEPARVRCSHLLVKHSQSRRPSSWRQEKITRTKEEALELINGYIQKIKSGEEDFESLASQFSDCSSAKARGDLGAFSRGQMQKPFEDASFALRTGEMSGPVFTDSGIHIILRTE

Regarding KLPPGWEKRMSRSSGRVYYFNHITNASQWERPSG (domain or fragment, human, UniProt Q13526 6-39, looked up) [Pin1WW (6–39)], the “fold weaker affinity than intact Pin1” value in the assay with c-Myc_(1–88) is greater than 10 fold.

Molecule B1 yielded a Kd in the assay with full-length Pin1 (1–163) [1] of 4 µM.

B2: pSer62-c-Myc_(1–88) (domain or fragment, human, UniProt P01106-1 1-88, looked up)
chain: MPLNVSFTNRNYDLDYDSVQPYFYCDEEENFYQQQQQSELQPPAPSEDIWKKFELLPTPPLSPSRRSGLCSPSYVAVTPFSLRGDNDG
modifications: phosphoserine at 62
For the molecule B2, in the assay with full-length Pin1 (1–163) [2], the Kd was 10 to 100 µM.

B3: Pin1_(PPIase) (50–163) (domain or fragment, human, UniProt Q13526 50-163, looked up)
chain: GEPARVRCSHLLVKHSQSRRPSSWRQEKITRTKEEALELINGYIQKIKSGEEDFESLASQFSDCSSAKARGDLGAFSRGQMQKPFEDASFALRTGEMSGPVFTDSGIHIILRTE
Take B3: the “fold weaker affinity than intact Pin1” value in the assay with c-Myc_(1–88) is greater than 10 fold.
